Reference: US20170189505A1

Each binder was assayed against HLA-A*24 (human) (assay: UV peptide exchange, anti-b2m ELISA).

peptide exchange yield [%]	Binder
> 75	QYLQDAYSF [SEQ ID No 272 peptide …]
20 to 49	RYPDNLKHL [SEQ ID No 286 peptide …]
> 75	KYMVYPQTF [SEQ ID No 267 peptide …]
50 to 75	LYITEPKTI [SEQ ID No 287 peptide …]
50 to 75	TYGDAGLTYTF [SEQ ID No 283 peptide …]
50 to 75	TYIESASEL [SEQ ID No 279 peptide …]
50 to 75	HYPPVQVLF [SEQ ID No 285 peptide …]
> 75	LYHDIFSRL [SEQ ID No 271 peptide …]
50 to 75	RYLNKAFHI [SEQ ID No 284 peptide …]
> 75	RYISDQLFTNF [SEQ ID No 278 peptide …]
> 75	RYPDNLKHLYL [SEQ ID No 280 peptide …]
> 75	IFLDYEAGTLSF [SEQ ID No 227 peptide …]
> 75	AYLHSHALI [SEQ ID No 274 peptide …]
20 to 49	PYRLIFEKF [SEQ ID No 281 peptide …]
50 to 75	YFIDSTNLKTHF [SEQ ID No 269 peptide …]
> 75	KYTSWYVAL [SEQ ID No 228 peptide …]
50 to 75	QYLGQIQHI [SEQ ID No 268 peptide …]
50 to 75	EYINQGDLHEF [SEQ ID No 275 peptide …]
> 75	KYPVEWAKF [SEQ ID No 289 peptide …]
> 75	VYQGHTALL [SEQ ID No 277 peptide …]
50 to 75	TYIKPISKL [SEQ ID No 273 peptide …]
50 to 75	NYYEVHKELF [SEQ ID No 270 peptide …]
> 75	VYGFQWRHF [SEQ ID No 276 peptide …]
> 75	KFVDSTFYL [SEQ ID No 282 peptide …]
50 to 75	VYVSDIQEL [SEQ ID No 288 peptide …]

The next lines start with the binder.

Binder	peptide exchange yield [%]
QYLENLEKL [SEQ ID No 224 peptide …]	50 to 75
VFTRVSSFL [SEQ ID No 162 peptide …]	50 to 75
VYEDQVGKF [SEQ ID No 170 peptide …]	20 to 49
TFSVSSHLF [SEQ ID No 222 peptide …]	50 to 75
TYKDEGNDYF [SEQ ID No 209 peptide …]	50 to 75
TYELRYFQI [SEQ ID No 204 peptide …]	> 75
KYIPYKYVI [SEQ ID No 223 peptide …]	50 to 75
EYPLVINTL [SEQ ID No 219 peptide …]	50 to 75
YYEVHKELF [SEQ ID No 175 peptide …]	> 75
LFIPSSKLLFL [SEQ ID No 171 peptide …]	50 to 75
YYKSTSSAF [SEQ ID No 218 peptide …]	50 to 75
HYSQELSLLYL [SEQ ID No 158 peptide …]	> 75
IYSWILDHF [SEQ ID No 173 peptide …]	> 75
YYGPSLFLL [SEQ ID No 200 peptide …]	50 to 75
LYIDRPLPYL [SEQ ID No 196 peptide …]	50 to 75
TYSVSFPMF [SEQ ID No 195 peptide …]	> 75
IYATEAHVF [SEQ ID No 201 peptide …]	50 to 75
RYAEEVGIF [SEQ ID No 199 peptide …]	50 to 75

Binder	peptide exchange yield [%]
AYVVFVSTL [SEQ ID No 207 peptide …]	20 to 49
EYNQWFTKL [SEQ ID No 176 peptide …]	50 to 75
NYINRILKL [SEQ ID No 167 peptide …]	> 75
EYSLFPGQVVI [SEQ ID No 197 peptide …]	50 to 75
VYRDETGELF [SEQ ID No 226 peptide …]	50 to 75
AYTLIAPNI [SEQ ID No 169 peptide …]	50 to 75
DYTTWTALL [SEQ ID No 165 peptide …]	> 75
KFSSFSLFF [SEQ ID No 164 peptide …]	50 to 75
DYLKGLASF [SEQ ID No 163 peptide …]	> 75
LYNKGFIYL [SEQ ID No 159 peptide …]	> 75
VYVGGGQIIHL [SEQ ID No 174 peptide …]	50 to 75
YYVYIMNHL [SEQ ID No 225 peptide …]	50 to 75
VYTLDIPVL [SEQ ID No 160 peptide …]	> 75
RYSTGLAGNLL [SEQ ID No 221 peptide …]	50 to 75
VYWDSAGAAHF [SEQ ID No 202 peptide …]	> 75
KYQDILETI [SEQ ID No 168 peptide …]	> 75
IYLVSIPEL [SEQ ID No 161 peptide …]	> 75
YYVESGKLF [SEQ ID No 166 peptide …]	> 75
